B1: GBR2-EGFP (receptor, UniProt O75899 42-941, looked up)
chain: WARGAPRPPPSSPPLSIMGLMPLTKEVAKGSIGRGVLPAVELAIEQIRNESLLRPYFLDLRLYDTECDNAKGLKAFYDAIKYGPNHLMVFGGVCPSVTSIIAESLQGWNLVQLSFAATTPVLADKKKYPYFFRTVPSDNAVNPAILKLLKHYQWKRVGTLTQDVQRFSEVRNDLTGVLYGEDIEISDTESFSNDPCTSVKKLKGNDVRIILGQFDQNMAAKVFCCAYEENMYGSKYQWIIPGWYEPSWWEQVHTEANSSRCLRKNLLAAMEGYIGVDFEPLSSKQIKTISGKTPQQYEREYNNKRSGVGPSKFHGYAYDGIWVIAKTLQRAMETLHASSRHQRIQDFNYTDHTLGRIILNAMNETNFFGVTGQVVFRNGERMGTIKFTQFQDSREVKVGEYNAVADTLEIINDTIRFQGSEPPKDKTIILEQLRKISLPLYSILSALTILGMIMASAFLFFNIKNRNQKLIKMSSPYMNNLIILGGMLSYASIFLFGLDGSFVSEKTFETLCTVRTWILTVGYTTAFGAMFAKTWRVHAIFKNVKMKKKIIKDQKLLVIVGGMLLIDLCILICWQAVDPLRRTVEKYSMEPDPAGRDISIRPLLEHCENTHMTIWLGIVYAYKGLLMLFGCFLAWETRNVSIPALNDSKYIGMSVYNVGIMCIIGAAVSFLTRDQPNVQFCIVALVIIFCSTITLCLVFVPKLITLRTNPDAATQNRRFQFTQNQKKEDSKTSTSVTSVNQASTSRLEGLQSENHRLRMKITELDKDLEEVTMQLQDTPEKTTYIKQNHYQELNDILNLGNFTESTDGGKAILKNHLDQNPQLQWNTTEPSRTCKDPIEDINSPEHIQRRLSLQLPILHHAYLPSIGGVDASCVSPCVSPTASPRHRHVPPSFRVMVSGL
notes: GABAB receptor subunit 2 (GBR2, GABAB2); source: HEK293, transfected, expressed alone at low expression level, on cells

What was measured:
O75899 = test: single-molecule photobleaching step counting (TIRFM); GBR1-EGFP co-expressed with unlabeled GBR2 in HEK293 cells; EGFP spots on the cell membrane; one bleaching step = one heterodimer, two steps = tetramer of two heterodimers (heterodimers to tetramer); resting state; also after 1 mM GABA …; settings: other: single-molecule photobleaching step counting (TIRFM)
[1] = target: the molecule itself; test: single-molecule photobleaching step counting (TIRFM); GBR2-EGFP expressed alone at low expression level in HEK293 cells; EGFP spots on the cell membrane; monomer to homodimer

Row | Molecule | percent of spots with one-step bleaching (single heterodimer) (O75899) | percent of spots with two-step bleaching (tetramer of two heterodimers) (O75899) | stoichiometry N [1]
1 | GABAB receptor heterodimer GBR1-EGFP/GBR2 | about 50% population | about 30% receptors | –
2 | B1 | – | – | 2

Reference: paper PMC8807474, “Single-Molecule Fluorescence Imaging Reveals GABAB Receptor Aggregation State Changes” (Frontiers in Chemistry, 2021)
